These results are taken from publication PMC4215650 (Nature, 2014).

Sequences and labels used below:
B1: Ring1B(2-116), as it stands in the crystal (domain or fragment)
chain: SQAVQTNGTQPLSKTWELSLYELQRTPQEAITDGLEIVVSPRSLHSELMCPICLDMLKNTMTTKECLHRFCADCIITALRSGNKECPTCRKKLVSKRSLRPDPNFDALISKIYPS
B2: Bmi1(2-109), as it stands in the crystal (domain or fragment)
chain: HRTTRIKITELNPHLMCVLCGGYFIDATTIIECLHSFCKTCIVRYLETSKYCPICDVQVHKTRPLLNIRSDKTLQDIVYKLVPGLFKNEMKRRRDFYAAHPSADAANG

What all share (test): crystal structure
Assay [1] concerns the target histone H2B, Xenopus, in the nucleosome core particle (Xenopus, UniProt P02281 5-126).
Assay [2] has as its target B1.
Assay [3] deals with histone H4, Xenopus, in the nucleosome core particle (Xenopus, UniProt P62799 2-103).

Take B1: the binding result in assay [1] was “binds”.

As for B2, the binding result in assay [2], in assay [1] and in assay [3] was “binds” in each case.
